Measured values reported in patent US20200010523A1 (INSTITUTE FOR CANCER RESEARCH, published 2020).

Biological target: T1, human Müllerian-inhibiting substance type II receptor (MISIIR) (human, UniProt Q16671 18-573)
T1 sequence (looked up): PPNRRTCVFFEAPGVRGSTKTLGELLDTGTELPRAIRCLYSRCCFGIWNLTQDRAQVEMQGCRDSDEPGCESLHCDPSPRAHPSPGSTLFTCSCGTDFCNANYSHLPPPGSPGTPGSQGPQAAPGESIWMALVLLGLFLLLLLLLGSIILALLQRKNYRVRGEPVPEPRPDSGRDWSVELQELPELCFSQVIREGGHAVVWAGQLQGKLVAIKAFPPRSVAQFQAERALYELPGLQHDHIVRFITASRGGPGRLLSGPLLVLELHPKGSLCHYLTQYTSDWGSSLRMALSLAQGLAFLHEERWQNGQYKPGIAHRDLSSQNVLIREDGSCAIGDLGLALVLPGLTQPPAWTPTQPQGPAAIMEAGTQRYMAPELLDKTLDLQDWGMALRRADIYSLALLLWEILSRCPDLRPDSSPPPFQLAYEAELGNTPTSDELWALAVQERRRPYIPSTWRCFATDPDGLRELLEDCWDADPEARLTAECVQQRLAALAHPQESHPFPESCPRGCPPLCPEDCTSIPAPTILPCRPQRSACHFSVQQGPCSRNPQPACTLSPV
Test: cell-based or functional assay

B1: Müllerian-inhibiting substance (MIS) (ligand)
chain: SAGATAADGPCALRELSVDLRAERSVLIPETYQANNCQGVCGWPQSDRNPRYGNHVVLLLKMQVRGAALARPPCCVPTAYAGKLLISLSEERISAHHVPNMVATECGCR
expression of a luciferase reporter gene over background levels, 10 nM, 3-day assay, P19 reporter cell line: ~10 fold
